Target: T1, HA-UbVS (HA-tagged ubiquitin vinyl sulfone activity probe) (UniProt P0CG48 1-75, C-terminal vinyl sulfone (VS) electrophilic trap)
T1 construct: Bought from Boston Biochem. Reacts covalently with the active site cysteine after specific recognition of Ub; also called Ub-vinyl sulfone
Assay: HA-UbVS activity probe labeling, gel shift
From the text: Reactions were terminated by the addition of SDS loading buffer.

B1: Parkin RBR (residues 238-465) (enzyme, UniProt O60260 238-465, looked up)
chain: CITCTDVRSPVLVFQCNSRHVICLDCFHLYCVTRLNDRQFVHDPQLGYSLPCVAGCPNSLIKELHHFRILGEEQYNRYQQYGAEECVLQMGGVLCPRPGCGAGLLPEPDQRKVTCEGGNGLGCGFAFCRECKEAYHEGECSAVFEASGTTTQAYRVDERAAEQARWEAASKETIKKTTKPCPRCHVPVEKNGGCMHMKCPQPQCRLEWCWNCGCEWNRVCMGDHWFDV
notes: range 238-465; also called RBR domain of Parkin
B1: binds.

Reference: patent US20140327158A1 (E3X BIO, published 2014)
